Assay results as given in paper PMC8179448.
Where two headings read alike, the source gives them in different places.

Columns and labels:
14-3-3ζ [1] = biological target: 14-3-3ζ (UniProt P63104); experiment: ITC; settings: for binding against the reference: reference: 240pi
14-3-3ζ [2] = biological target: 14-3-3ζ (UniProt P63104); experiment: fluorescence polarisation
14-3-3ζ [3] = biological target: 14-3-3ζ (UniProt P63104); experiment: fluorescence polarisation; remark: listed apart in the source
14-3-3ζ [4] = biological target: 14-3-3ζ (UniProt P63104); experiment: fluorescence polarisation; remark: listed apart in the source
14-3-3ζ [5] = biological target: 14-3-3ζ (UniProt P63104); experiment: fluorescence polarisation titration, FAM-labelled peptides; settings: for binding against the reference: reference: 240pi
14-3-3ζ [6] = biological target: 14-3-3ζ (UniProt P63104); experiment: fluorescence polarisation; remark: listed apart in the source
14-3-3ζ protein, P63104 = biological target: T1, 14-3-3ζ protein, P63104; experiment: native gel or EMSA + cross-linking + other: MALDI-TOF; settings: remark: other sources report otherwise
T1 chain: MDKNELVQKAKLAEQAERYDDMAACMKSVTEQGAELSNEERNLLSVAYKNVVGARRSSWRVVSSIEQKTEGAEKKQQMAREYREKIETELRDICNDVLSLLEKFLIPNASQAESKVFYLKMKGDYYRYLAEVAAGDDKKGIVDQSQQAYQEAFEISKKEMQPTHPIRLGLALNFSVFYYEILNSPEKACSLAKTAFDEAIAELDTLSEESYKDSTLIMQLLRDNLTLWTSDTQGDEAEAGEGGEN

Question: “Rnd3 C-terminal peptide (207–241) 210_240pi (from UniProt P61587 207-241)” was tested. Which dH (14-3-3ζ [1]) did it give?
Answer: -8.76 kcal/mol

Question: And the stoichiometry N (peptide per 14-3-3ζ) (14-3-3ζ [1])?
Answer: 0.5

Question: With “FAM-labeled Rnd3 C-terminal peptide (207–241) no_piFar (from UniProt P61587 207-241)” as the molecule, how does the Ka (14-3-3ζ [2]) read?
Answer: 130000 M⁻¹

Question: Which Ka (14-3-3ζ [2]) does the source give for “FAM-labeled Rnd3 C-terminal peptide (207–241) 240piFar (from UniProt P61587 207-241)” here?
Answer: 3.13e+06 M⁻¹

Question: What about the Kd (14-3-3ζ [2]) of the same molecule?
Answer: 320 nM

Question: And the ka,1 (two-step fit assuming pS240 binds first; rejected by the paper) (14-3-3ζ [2])?
Answer: 31.1 μM^−1 s^−1

Question: And the ka,2 (two-step fit assuming pS240 binds first; rejected by the paper) (14-3-3ζ [2])?
Answer: 60.2 s^−1

Question: And the kd,1 (two-step fit assuming pS240 binds first; rejected by the paper) (14-3-3ζ [2])?
Answer: 13 s^−1

Question: What about the kd,2 (two-step fit assuming pS240 binds first; rejected by the paper) (14-3-3ζ [2]) of the same molecule?
Answer: 345 s^−1

Question: What about the koff (14-3-3ζ [2]) of the same molecule?
Answer: 10.9 s⁻¹

Question: And the koff (14-3-3ζ [3])?
Answer: 8.02 s⁻¹

Question: And the ka,1 (first step of the two-step fit) (14-3-3ζ [4])?
Answer: 3.92e+07 M⁻¹ s⁻¹

Question: What about the ka,2 (second step of the two-step fit) (14-3-3ζ [4]) of the same molecule?
Answer: 25.6 s⁻¹

Question: What about the kd,1 (first step of the two-step fit) (14-3-3ζ [4]) of the same molecule?
Answer: 19.9 s⁻¹

Question: What about the kd,2 (second step of the two-step fit) (14-3-3ζ [4]) of the same molecule?
Answer: 54.5 s⁻¹

Question: Which results are given for “Rnd3 207-241 (from UniProt P61587) 210_240pi”?
Answer: binding against the reference (14-3-3ζ [1]; sites S210): stronger; binding against the reference (14-3-3ζ [5]; sites S210): stronger

Question: For “Rnd3 C-terminal peptide (207–241) 240piFar (from UniProt P61587 207-241)”, which dH (14-3-3ζ [1]) is on record?
Answer: -3.56 kcal/mol

Question: What about the stoichiometry N (peptide per 14-3-3ζ) (14-3-3ζ [1]) of the same molecule?
Answer: 1

Question: What does the source list for “Rnd3 C-terminal peptide (207–241) 218_240pi (from UniProt P61587 207-241)”?
Answer: dH (14-3-3ζ [1]): -6.22 kcal/mol; stoichiometry N (peptide per 14-3-3ζ) (14-3-3ζ [1]): 0.5

Question: How did the “binding against the reference” value (14-3-3ζ [1]; sites S218) turn out when “Rnd3 207-241 (from UniProt P61587) 218_240pi” was run?
Answer: stronger

Question: How did the “other: association constant K” value (14-3-3ζ [5]; reference: no_piFar, sites S240) turn out when “Rnd3 207-241 (from UniProt P61587) 240piFar” was run?
Answer: stronger; reference 0.13

Question: With “FAM-labeled Rnd3 C-terminal peptide (207–241) 218_240pi (from UniProt P61587 207-241)” as the molecule, how does the Kd (14-3-3ζ [2]) read?
Answer: 400 nM

Question: What about the ka,1 (two-step fit assuming pS218 binds first; rejected by the paper) (14-3-3ζ [2]) of the same molecule?
Answer: 16.7 μM^−1 s^−1

Question: What about the ka,2 (second step of the two-step fit) (14-3-3ζ [2]) of the same molecule?
Answer: 66.2 s⁻¹

Question: What about the ka,2 (two-step fit assuming pS218 binds first; rejected by the paper) (14-3-3ζ [2]) of the same molecule?
Answer: 29.8 s^−1

Question: What about the kd,1 (two-step fit assuming pS218 binds first; rejected by the paper) (14-3-3ζ [2]) of the same molecule?
Answer: 53.8 s^−1

Question: What about the kd,2 (two-step fit assuming pS218 binds first; rejected by the paper) (14-3-3ζ [2]) of the same molecule?
Answer: 8.64 s^−1

Question: What about the koff (14-3-3ζ [2]) of the same molecule?
Answer: 9.69 s⁻¹

Question: What about the koff (14-3-3ζ [6]) of the same molecule?
Answer: 8.42 s⁻¹

Question: And the ka,1 (first step of the two-step fit) (14-3-3ζ [4])?
Answer: 5.75e+07 M⁻¹ s⁻¹

Question: What about the ka,2 (second step of the two-step fit) (14-3-3ζ [4]) of the same molecule?
Answer: 62.2 s⁻¹

Question: And the kd,1 (first step of the two-step fit) (14-3-3ζ [4])?
Answer: 35.2 s⁻¹

Question: What about the kd,2 (second step of the two-step fit) (14-3-3ζ [4]) of the same molecule?
Answer: 38.9 s⁻¹

Question: How did the “binding against the reference” value (14-3-3ζ [1]; sites S210,S218) turn out when “Rnd3 207-241 (from UniProt P61587) all_pi” was run?
Answer: stronger

Question: What about the “binding against the reference” value (14-3-3ζ [5]; sites S210,S218) of the same molecule?
Answer: stronger

Question: Which dH (14-3-3ζ [1]) does the source give for “Rnd3 C-terminal peptide (207–241) 240pi (from UniProt P61587 207-241)” here?
Answer: -3.53 kcal/mol

Question: And the stoichiometry N (peptide per 14-3-3ζ) (14-3-3ζ [1])?
Answer: 1

Question: Which dH (14-3-3ζ [1]) does the source give for “Rnd3 C-terminal peptide (207–241) no_piFar, farnesylated, without phosphate (from UniProt P61587 207-241)” here?
Answer: 0.703 kcal/mol

Question: Which results are given for “FAM-labeled Rnd3 C-terminal peptide (207–241) 240pi (from UniProt P61587 207-241)”?
Answer: Ka (14-3-3ζ [2]): 290000 M⁻¹; Kd (14-3-3ζ [2]): 3390 nM; koff (14-3-3ζ [2]): 63.9 s⁻¹; Kd (14-3-3ζ [4]): 1490 nM; koff (14-3-3ζ [4]): 44.2 s⁻¹; kon (14-3-3ζ [4]): 2.96e+07 M⁻¹ s⁻¹

Question: For “Rnd3 C-terminal peptide (207–241) 210_240piFar (from UniProt P61587 207-241)”, which dH (14-3-3ζ [1]) is on record?
Answer: -7.35 kcal/mol

Question: What about the stoichiometry N (peptide per 14-3-3ζ) (14-3-3ζ [1]) of the same molecule?
Answer: 0.5

Question: “Rnd3 C-terminal peptide (207–241) 218_240piFar (from UniProt P61587 207-241)” was tested. Which dH (14-3-3ζ [1]) did it give?
Answer: -5.58 kcal/mol

Question: What about the stoichiometry N (peptide per 14-3-3ζ) (14-3-3ζ [1]) of the same molecule?
Answer: 0.5

Question: “Rnd3 C-terminal peptide (207–241) all_pi, triply phosphorylated (from UniProt P61587 207-241)” was tested. Which dH (14-3-3ζ [1]) did it give?
Answer: -7.15 kcal/mol

Question: And the stoichiometry N (peptide per 14-3-3ζ) (14-3-3ζ [1])?
Answer: 0.5

Question: With “Rnd3 C-terminal peptide (207–241) all_piFar (from UniProt P61587 207-241)” as the molecule, how does the dH (14-3-3ζ [1]) read?
Answer: -6.26 kcal/mol

Question: What about the stoichiometry N (peptide per 14-3-3ζ) (14-3-3ζ [1]) of the same molecule?
Answer: 0.5

B1: 14-3-3ζ protein, P63104 1-245 (natural protein)
chain: T1 chain
Question: For B1, which stoichiometry N (14-3-3ζ protein, P63104) is on record?
Answer: 2
